Experimental data taken from the nanobody polyreactivity screen of Harvey et al. (2022).

Assay: yeast display, Sf9 membrane polyspecificity reagent, FACS + sequencing; frameworks hold sequencing errors
Summary of the method: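 Sorting gates, low and high (top ~1%), were placed on anti-HA fluorescence to track expression and on streptavidin fluorescence to track reagent binding. A clone's polyreactivity label is taken from the gate it came out of. The reagent was 10% biotinylated, detergent-solubilized Sf9 membrane, applied for 1 hour at 4 °C to galactose-induced yeast display cells.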

Sequence	polyreactivity (PSR sort gate)
QVQLVESGGGLVQAGGSLRLSCAASGRTFDDNAMGWYRQAPGKERELVAAISSTGSTNYADSVKGRFTISRDNAKNTVYLQMNSLKPEDTAVYYCNTDRGHERAYYYWGQGTQVTVSS	low polyreactivity
QVQLVESGGGLVQAGGSLRLTCAASGFTFRYYTMGWYRQAPGTERELVARISNRGGSTYYADSVKGRFTISRDNAKNTVYLQMNSLKPEDTAVFYCAAARRYYTYYREDYYYWGQGTQVTVSS	high polyreactivity
QVQLVESGGGLVQAGGSLRVSSAASGRIFYLYVMAWYRQAPGKERELVAGITGSGGNTYYADSVKGRCTISRDNAKNTVDLQMNSLKPEDTAVYFCNDRFRARPRMGYWGQATQVTVSS	high polyreactivity
QVQLVESGGGLVQAGGSLRLSCAASGRIFFIYAMGWYRQAPGKERELVAGINRTGGSTYYADSVKGRFTISRDNAKNTVYLQMNSLKPEDTAVYYCAAVSYYASDYRYDYWGQGTQVTVSS	low polyreactivity
QVQLVESGGGLVQAGGSLRLSCAASGGTFTYYAMGWYRQAPGKVRELVAAISWSGGSTYYADSVKGRFTISRDIAKNSVYLQMNSLKPEDSAVYYCAADYTGHFYYYWGQGTQVTVSS	low polyreactivity
QVQLVESGGGLVQAGGSLRLSCAASGRIFSPYAMGWYRQAPGKERELVASIRGSGGSTYYADSVKGPFTISRDNAKNTVYLQMNRLKPEDTAVYYCNARNNYRFLSFGYWGQGTQVTVSS	high polyreactivity
QVQLVESGGGLVQAGGSLRLSCAASGGTFAVNVMGWYRQAPGKERELVAAITSNGGSTYYADSVKGRFTISRDNAKNTVYLQMNSLTPEDTAVYYCAAEGSGWYTGHYYYWGQGTQVTVSS	low polyreactivity
QVQLVESGGGLVQAGGSLRLSCAASGSTFGVYAMGWYRQAPGKERELVAAIRWSSGSTYYADSVKGRFTISRDNAKNTVYLQMNSLKPEDTAVYYCAKTRGIYNIRFGYWGQGTQVTVSS	high polyreactivity
QVQLVESGGGLVQAGGSLRLSCAASGLIFGWNAMGWYRQAPGKERELVAAITWNGGSTYYADSVKGRFTISRDNAKITVSLQMNSLKPEDTAVYYCAARVGWNIRGYDYWGQGTQVTVSS	low polyreactivity
QVQLVESGGGLVQAGGSLRLSCAASGNTFYYNAMGWYRQAPGKEREFVAAITSSGGGTYYADSVKGRFTISRDNAKNTVYLQMNSLKPEDTAVYYCAADATYRKQVIFYYWGQGTQVTVSS	low polyreactivity
QVQLVESGGGLVQAGGSLRLSCAASGYTFVYNGMGWYRQAPGKERELVAAITWGGAGTYYADSVKGRFTISRDNAKNTVYLQMISLKPEDTSVYYCAPPSPRSRAYTYRGDYWGQGTQVTVSS	low polyreactivity
QVQLVESGGGLVQSGGSLRLSCAASGLIFGRYAMGWYRQAPGKERELVAAISYSGARTYYADSVKGRFTISRDNEKNTVYLQMNSLKPEDTAVYYCAAGPAFRQSEWWKAYDYWGQGTQVTVSS	high polyreactivity
QVQLVESGGGLVQAGGSLRLSCAASGRIFRNYAMGWYRQAPGKERELVAAISSGGGSTYYADSVKGRFTISRDNAKNTVYLQMNSLKPEDTAVYYCNARYVYYGKFREYDYWGQGTQVTVSS	high polyreactivity
QVQLVESGGGLVQAGGSLRLSCAASGSTFWFNAMGWYRQAPGKERELVAAISSTGSTNYADSVKGRFTISRDNSKNTVYLQMNSLKPEDTAVYYCATQEGPHKLDPRGYYWGQGTQVTVSS	low polyreactivity
QVQLVESGGGLVQAGGSLRLSCAASGSTFPTYAMGWYRQAPGKERELVAAITRGGSTYYADSVKGRFTISRDNAKNTVYLQMHSRKPEDTSVYYCAVYEFLGQIGKRDYWGQGTQVTVSS	low polyreactivity
QVQLVESGGGLVQAGGSLRLTCAASGFTFAYKTMGWYRQAPGKERELVAAISWSGGRTYYADSVKGRFTISRDNAKNTVYLQMNSLKPEHTAVYYCAAEFWNQYGAYDYWGQGTQVTLSS	low polyreactivity

Sequence	polyreactivity (PSR sort gate)
QVQLVESGGGLLQAGASLRLSCAASGRTIYRYAMGRYRQAPGKERELVAAITRRGVNTYYADSVKGRFTISRDNAKNTVYLQMYSLKPVDTAVFYCNAAYSSRYDYCGQGTQVTVSS	high polyreactivity
QVQLVESGGGLVQAGGSLRLSCAASGFTFEYYAMGWYRHAPGKERELVAAITSGGTTYYADSVKGRFTISRDNAKNTDYLQMNSLKPEDTAVYYCAAANRFGPYGYWGQGTQVTVSS	high polyreactivity
QVQLVESGGGLVQAGGRLRLTCAASGRIFFWYVMGWYRQATGKERELVAAISSGGRTYYADAVKGRFTISRDNAKNTVYLQMNSLKPEDTAVYYCNVEEYHVRADIGYSNYGYWGQGTQVTVSS	low polyreactivity
QVQRVESGGGLVQAGGSLRLSCAASGYTFLRYAKGSYRQAPGKERELVAAISRRGGRTYYADSVKGRFTISRDNAKNTVYLQMNSLKPEDTAVYYCAAVNSTQTIGLMDYWGQGTQVTVSS	high polyreactivity
QVQLVESGGGLVLPGGSLRLSCAASGITFTYNAMGWYRQAPGQERELVAAISYSGGSTYYADSVKGRFTISRDNAKNTVYLQMNSLTPEDTAVYYCARRRLLYSGGKSGYYGYYYWGQGTQVNVSS	high polyreactivity
QVQLVESGGGLVQAGGSLRLSCAASGRTLLANAMGWYRQAPGKARELVAAITWTGGRTNYADSVKGRFTISRDNAKNTVYLQMNSLKPEDTAVYYCAADIFYEQVVGGTDVGYHDFDYWGQGTQVTVSS	low polyreactivity
QVQLVESGGGLVQAGGSLRLSCAASGRIFSSNAMGWYRQAPGKEWELVAAITRGGSTNYADSVKGRFTISRDNAKNTDYLQMNSLKPEDTAVYYCNVDYYVFNHQGHLNYDYWGQGTQVTVSS	high polyreactivity
QVQLVESGGGLVQAGGSLRLSGAASGRILRRYTMGWSRQAPGKERELVAAISSGGNTYYADSVKGRFTISRDNATNTVYLQMNSLKPEDTAGYYCAARVRRYWEYDYWGQGTQVTVSS	low polyreactivity
QVQLVETGGGLVQAGGSLRLSCAASGFIFYPYDMGWYRQAPGKERELVAAITQSGGSTYYADSVKGRFTISRDNAKNTVYLQMNSLKQVDTAVYYCAADYAVWHRGQVVEIYDYWGQGTQVTVSS	low polyreactivity
QVQLVDSGGGLVQAGGSLRLSCAASGRTFGAYAMGWYRQAPGKERELVATITVSGGSTYYADSVKGRFTISRDNAKNTVYLQMNSLKPEDSAVYYCAAAYDWWQFYSWTIAYDYWGQGTQVTVSS	low polyreactivity
QVQLVESGGGLVQAGGSLRLSCAASGYIILGYAMGWYRQAPGKERELVAVINWSGGRTRYADSVKGRFTISRDNAKNTVYLQMNSLKPEDTAVYYCAAERSITYDYWGQGTQVTVSS	high polyreactivity
QVQLVESGAGLVQAGGSLRLSCAASGSSSLYNAMGWYRQAPGKERELVAAISSGGSTNYADSVKGRFTISRENAKNNVYLQMNSLQPEDTAVYYCAAVTVRRVSCAQYKQYDYWGLGTQVTVSS	high polyreactivity
QVQLVESGGGLVQAGGSLRLSCAASGRIFSSYVMGWYRQAPGKERELVAAIRWSGGSTYYADSVKGRFTISRDNAKNTVYLQMNSLKPEDTAVYYCAAVVYRYYATGYGYWGQGTQVTVSS	high polyreactivity
QVQLVESGGGLVQAGGSLRLSCAASGRIFGYTMGWYRQAPGKERELVAAISKSGGSTYYADSVKGRFTISRDNAKNTVYLQMNSLIPEDTAVYVCNKPQRILYDYWGQGSQVTVSS	high polyreactivity
QVQLVESGGGLVQAGGSLRLSCDASGRIFHGNAMGWYRQAPGKEREFVAAITYGGGSTYYADSVKGRFTISRDNAKNTVYLQMNSLKPEDTAVYYCNARGARSNGVRGYYSKLNYWGQGTQVTVSS	high polyreactivity
